According to publication PMC9164213 (Nature, 2021):

Target: the molecule itself
Test: cryo-EM structure

B1: GsuCas2 (Geobacter sulfurreducens Cas2), tag cleaved (natural protein)
chain: MEHLYIVSYDIRNQRRWRRLFKTMHGFGCWLQLSVFQCRLDRIRIIKMEAAINEIVNHAEDHVLILDLGPAENVKPKVSSIGKTFDPILRQAVIV
stoichiometry N: 2

B2: GsuCas4/Cas1 (Geobacter sulfurreducens type I-G Cas4/Cas1 natural fusion), tag cleaved (natural protein)
chain: MAETDGSIPLIPVRMLNEHVYCPRLAYLMWVQGEFSHNEFTVDGVIRHRRVDAGGGVLPSETQEDSRIHARSVSLSSERLGITAKIDLVEGEGAYVSPVDYKRGKRPHVAGGAYEPERVQLCAQGLLLREHGFASDGGALYFVASRERVPVAFDDELIGRTLAAIDEMGRTALSGTMPPPLEDSPKCPRCSLVGICLPDEVRFLSHLSVEPRPIIPADGRGLPLYVQSPKAYVRKDGDCLVIEEERVRVAEARLGETSQVALFGNATLTTAALHECLRREIPVTWLSYGGWFMGHTVSTGHRNVETRTYQYQRSFDPETCLNLARRWIVAKIANCRTLLRRNWRGEGDEAKAPPGLLMSLQDDMRHAMRAPSLEVLLGIEGASAGRYFQHFSRMLRGGDGEGMGFDFTTRNRRPPKDPVNALLSFAYAMLTREWTVALAAVGLDPYRGFYHQPRFGRPALALDMMEPFRPLIADSTVLMAINNGEIRTGDFVRSAGGCNLTDSARKRFIAGFERRMEQEVTHPIFKYTISYRRLLEVQARLLTRYLSGEIPAYPNFVTR
stoichiometry N: 2
